Measurements: patent JP2020002075A

Tests used:
[1] = target: ポドプラニン (ポドプラニン提示CHO細胞, 種の記載なし); assay: flow cytometry; cells and species not named at this place
[2] = target: ポドプラニン (ポドプラニン提示CHO細胞, 種の記載なし); assay: binding to podoplanin-displaying CHO cells; reference clone 1 scFv

B1: clone 1から作製したdiabody (protein)
chain: EVQLKESGGGLVQSGGSLRLSCAASGFSLTDYGVNWVRQAPGKGLEWVGVIWGGGNTYYNSALKSRFTISKDNSKNTLYLQMNSLRAEDTAVYYCAKHRGAWGQGTLVTVSAGGGGSDIVMTQSPSTLAVSLGEKATINCKSSKSLLNSGNQKNYLIWYQQKPGQPPKLLIYGASTRESGVPDRFSGSVSGTDFTLTISSLQAEDLAVYYCQNDHTYPLTFGQGTKVEIKRTV
B1 was tested, and the Kd [1] was 1.7 nM and the fold increase of affinity against the scFv (clone 1) [2] was 100 fold.
